{
  "source": "paper PMC6572678",
  "about": "“Bulged and Canonical G-Quadruplex Conformations Determine NDPK Binding Specificity”",
  "key": {"[1]": {"molecular_target": "T1, ZmNDPK1 (nucleoside diphosphate kinase 1, homolog of human NM23-H2) (Zea mays, UniProt B4FK49 1-149)", "T1 sequence": "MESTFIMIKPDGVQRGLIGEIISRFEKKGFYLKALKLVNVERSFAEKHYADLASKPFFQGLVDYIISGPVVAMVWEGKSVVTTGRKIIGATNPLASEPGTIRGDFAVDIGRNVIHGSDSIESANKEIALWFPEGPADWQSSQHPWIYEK", "test": "competition; 100-fold excess vs hex4_A5U, 20 mM KCl; Filter binding: oligos annealed in 10 mM TBA phosphate pH 7.5 + 20 mM KCl, 60 min incubation; competition 1 nM FAM probe, 100 nM competitor, 5 nM protein. FRET: 10 mM TBA pH 7.5 + 100 mM KCl or LiCl, 1 h at 4 °C, 0-1000 nM protein", "details": "protein: recombinant, chain copies: 6"}, "[2]": {"molecular_target": "T1, ZmNDPK1 (nucleoside diphosphate kinase …)", "test": "filter binding; 20 mM KCl; Filter binding: oligos annealed in 10 mM TBA phosphate pH 7.5 + 20 mM KCl, 60 min incubation; competition 1 nM FAM probe, 100 nM competitor, 5 nM protein. FRET: 10 mM TBA pH 7.5 + 100 mM KCl or LiCl, 1 h at 4 °C, 0-1000 nM protein", "details": "protein: recombinant, chain copies: 6, label: 5' FAM (Kd)"}},
  "data": [
    {"binder": "GGGTTTTGAATGGAGTAGGAGTTAGGG (structured_DNA)", "note": "[A5UBF]", "values": [
      {"measurement": "binding signal", "setting": "[1]; bulged G4, anti-h by CD", "result": 23, "unit": "% competition"}
    ]},
    {"binder": "GGGTTTTGAATTGAGGATGAGGTAGGG (structured_DNA)", "note": "[A5UCG]", "values": [
      {"measurement": "binding signal", "setting": "[1]; bulged G4, mixed by CD", "result": 36, "unit": "% competition"}
    ]},
    {"binder": "GGGTTTTGAAGGGATTATTAGGGAGGG (structured_DNA)", "note": "[A5UAH (canonical; trim_AH)]", "values": [
      {"measurement": "Kd", "setting": "[2]; canonical G4, parallel", "result": 14.4, "unit": "nM"},
      {"measurement": "binding signal", "setting": "[1]; label: 5' FAM (Kd), canonical G4, parallel", "result": 77, "unit": "% competition"}
    ]},
    {"binder": "GGGTTTTGAATGGAGTATGAGGTAGGG (structured_DNA)", "note": "[A5UBG]", "values": [
      {"measurement": "binding signal", "setting": "[1]; bulged G4, anti-h by CD", "result": 50, "unit": "% competition"}
    ]},
    {"binder": "GGGTTTTGAAGGGATTAGGAGTTAGGG (structured_DNA)", "note": "[A5UAF]", "values": [
      {"measurement": "binding signal", "setting": "[1]; bulged G4, anti-h by CD", "result": 15, "unit": "% competition"}
    ]},
    {"binder": "GGGTTTTGAATTTATGAGGAGGGAGGG (structured_DNA)", "note": "[A5UEH]", "values": [
      {"measurement": "binding signal", "setting": "[1]; bulged G4, parallel", "result": 81, "unit": "% competition"}
    ]},
    {"binder": "GGGTTTTGAATTGAGGAGGAGTTAGGG (structured_DNA)", "note": "[A5UCF]", "values": [
      {"measurement": "binding signal", "setting": "[1]; bulged G4, parallel", "result": 62, "unit": "% competition"}
    ]},
    {"binder": "GGGTTTTGAAGGGAGGAGTATTTAGGG (structured_DNA)", "note": "[A5UAD]", "values": [
      {"measurement": "binding signal", "setting": "[1]; bulged G4, parallel", "result": 73, "unit": "% competition"}
    ]},
    {"binder": "GGGTTTTGAAGGGATTATGAGGTAGGG (structured_DNA)", "note": "[A5UAG]", "values": [
      {"measurement": "binding signal", "setting": "[1]; bulged G4, anti-h by CD", "result": 40, "unit": "% competition"}
    ]},
    {"binder": "GGGTTTTGAATTTAGGAGTAGGGAGGG (structured_DNA)", "note": "[A5UDH]", "values": [
      {"measurement": "binding signal", "setting": "[1]; bulged G4, parallel", "result": 77, "unit": "% competition"}
    ]},
    {"binder": "GGGTTTTGAATGGAGTATTAGGGAGGG (structured_DNA)", "note": "[A5UBH]", "values": [
      {"measurement": "binding signal", "setting": "[1]; bulged G4, parallel", "result": 85, "unit": "% competition"}
    ]},
    {"binder": "GGGTTTTGAATTGAGGATTAGGGAGGG (structured_DNA)", "note": "[A5UCH]", "values": [
      {"measurement": "binding signal", "setting": "[1]; bulged G4, parallel", "result": 76, "unit": "% competition"}
    ]},
    {"binder": "GGGTTTTGAAGGGATGAGGATTTAGGG (structured_DNA)", "note": "[A5UAE]", "values": [
      {"measurement": "Kd", "setting": "[2]; bulged G4, anti-h by CD", "result": 194, "unit": "nM"},
      {"measurement": "binding signal", "setting": "[1]; label: 5' FAM (Kd), bulged G4, anti-h by CD", "result": 16, "unit": "% competition"}
    ]}
  ]
}
